Measured values as given in the supplement of paper PMC12764529.
± gives the half width of the 95% confidence interval.

How the values were obtained:
[1] = folding stability dG unfold from trypsin proteolysis; higher = more stable
Summary of the method: (§1)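 Mini-proteins designed to be under 80 residues and free of cysteine were carried in a PA-tagged cDNA display construct and digested with trypsin and with chymotrypsin. Each protease was applied at 11 threefold-diluted concentrations, alongside a no-protease condition, before sequencing. K50 came from Bayesian fitting of the sequencing counts, and unfolding free energy was obtained by comparing it with a sequence-predicted unfolded-state K50 and a shared folded-state K50, for each protease separately or for both together. Designs were retained only if their AlphaFold2 dimer inter-PAE exceeded 15.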

[2] = folding stability dG unfold from chymotrypsin proteolysis; higher = more stable
Summary of the method: as §1

[3] = folding stability dG unfold (combined trypsin and chymotrypsin); higher = more stable
Summary of the method: as §1

Sequence | folding stability dG unfold [1] | folding stability dG unfold [2] | folding stability dG unfold [3]
SAGGPLTLTIPLPDGTTITVTLTRNPDTPSYTATADITFPDGSVVRIHATINSDGSITIHSVEVFPASAGGS [r16_213_TrMRF] | 4.51 ± 0.57 kcal/mol | 5.06 ± 0.24 kcal/mol | 5.19 ± 0.18 kcal/mol
SAGGPMPLDDIEIHNVWPYKGEYWMVMITVPNNGKEIMIPWDDLDELLENDPNVEVDVMPIKPGQPMSAGGS [r16_61_TrROS] | 1.12 ± 0.04 kcal/mol | 1.21 ± 0.061 kcal/mol | 1.25 ± 0.083 kcal/mol
SAGGPMRRVKVEIKDPDGGKIEIDDVYVPDNSVWAKIFLPDLGREIPFPFDTPDQAVEWIKDFVLQLSAGGS [r16_736_TrROS] | 0.482 ± 0.099 kcal/mol | 1.15 ± 0.21 kcal/mol | 0.929 ± 0.29 kcal/mol
SAGGPMYIVIKVEVWNPDNGKKREINIVIPIPPGMTPEQMLEKAKELARTIAEENGYEVRIDEIHIFSAGGS [r8_312_TrROS] | 3.13 ± 0.087 kcal/mol | 2.862 ± 0.02 kcal/mol | 3.03 ± 0.098 kcal/mol
SAGGPNVPIRIRVTIERQDPDGEPKDFEFPIEYPMPPDDPEQAKEQIEELAESIAEKHGYKVEIEIEPSAGG [r13_853_TrROS] | -0.664 ± 0.18 kcal/mol | -0.45 ± 0.29 kcal/mol | -0.627 ± 0.55 kcal/mol
SAGGPPIKKAEIKEIYPEKGIINAIIELEDIPKPYEAIGIITDEKEGIIFVEIINPEGGPPLYFTIKASAGG [r13_337_TrMRF] | 0.928 ± 0.033 kcal/mol | 1.09 ± 0.1 kcal/mol | 0.972 ± 0.22 kcal/mol
SAGGPPIRIKVELWDPNGKEYTHTFPFGEPLDQILDNASKQFGLPLRVEDIEYDPDGMITITIRIPDSAGGS [r8_285_TrROS] | 1.75 ± 0.036 kcal/mol | 1.77 ± 0.027 kcal/mol | 1.8 ± 0.1 kcal/mol
SAGGPPRTVTVFVNDPDGNTYTFTFSDSVPLSTVVANVSKTLGVPLTVDSVTVHPDGTVTITVTNPGSAGGS [r8_285_TrMRF] | 4.57 ± 0.14 kcal/mol | 5 ± 0.06 kcal/mol | 4.96 ± 0.062 kcal/mol
SAGGPPVTLTLTLTFTETRTVRNPATGETVTVEKVTLTLTITLEPGMSKEQLEALLKELRELFPSLESAGGS [r8_306_TrROS_Hall] | 3.53 ± 0.25 kcal/mol | 5.15 ± 0.28 kcal/mol | 5.11 ± 0.29 kcal/mol
SAGGPPWVRVVDVRIEPVEDGGERRITLTFPPDVTLEEVRERVREMLPPGAEAELTVERVEVRPVLASAGGS [r16_393_JUSTAS] | 1.27 ± 0.016 kcal/mol | 1.56 ± 0.019 kcal/mol | 1.49 ± 0.04 kcal/mol
SAGGPRVEPLPLRVTYEDGVPPREVTVPLLAVTALDPETGEPVTFVNPGSLEVLAALLPPSVVSFDFSAGGS [r16_522_TrMRF] | 0.714 ± 0.012 kcal/mol | 0.703 ± 0.066 kcal/mol | 0.755 ± 0.05 kcal/mol
SAGGPRVFRLTYLDPETGEPRELRFSLPVPPAPDFISVYVNVPPELARRIAELLRELYPDKPVLVHRSAGGS [r8_437_TrMRF] | 2 ± 0.036 kcal/mol | 2.971 ± 0.019 kcal/mol | 2.68 ± 0.049 kcal/mol
SAGGPSVDIDPRLNEDGTPYVLATLHIVPVHSDGSSSSADIPVVFDSLDDLLAFVKAISPGSAKVSLSAGGS [r16_652_TrMRF] | 0.42 ± 0.067 kcal/mol | 1.27 ± 0.083 kcal/mol | 0.959 ± 0.058 kcal/mol
SAGGPTIRLLVLPNKAEEVAEAIKKEFGAEVKILRVEPYPLPGPDGKVLKPVYLVEIEVKVKDPRLPLSAGG [r13_943_TrMRF] | 1.17 ± 0.051 kcal/mol | 1.3 ± 0.14 kcal/mol | 1.29 ± 0.17 kcal/mol
SAGGPVETPGPHPLRPVPVVEPKKVVVTYPDLSPEEAAALAAELEAQGATTSFDPATGTLTVTLTGLSAGGS [r16_765_JUSTAS] | 1.12 ± 0.043 kcal/mol | 3 ± 0.038 kcal/mol | 2.58 ± 0.072 kcal/mol
SAGGPWVVIKIRTPNKPIEIPIPGFKIENTGDSMTIVFPPDDPDQVLDALEKASPGIKITKIEVVKPSAGGS [r8_490_TrROS] | 0.65 ± 0.06 kcal/mol | 0.318 ± 0.12 kcal/mol | 0.575 ± 0.1 kcal/mol
SAGGPYEFWFTITIDYPDLTPKQAVEEARKILRKLGFEITDIPVQVDPDPGWITVMARITIRPPEDASAGGS [r16_287_TrROS] | 3.31 ± 0.063 kcal/mol | 3.98 ± 0.044 kcal/mol | 3.58 ± 0.16 kcal/mol
SAGGPYYEWEIKLPDNKTISITMRRNPENGRPQHTVTIHDPEKGKPVKEHPFDSPEEAEELIEEGLLSAGGS [r8_450_TrROS] | -0.0517 ± 0.16 kcal/mol | 0.445 ± 0.21 kcal/mol | 0.287 ± 0.35 kcal/mol
